Earlier results as cited in PMC5803488.
Where two headings read alike, the source gives them in different places.

Columns and labels:
ubiquitin [1] = biological target: ubiquitin (UniProt P0CG48)
ubiquitin [2] = biological target: ubiquitin (UniProt P0CG48); remark: listed apart in the source

Sequence of Tsg101 UEV (Q99816 1-148): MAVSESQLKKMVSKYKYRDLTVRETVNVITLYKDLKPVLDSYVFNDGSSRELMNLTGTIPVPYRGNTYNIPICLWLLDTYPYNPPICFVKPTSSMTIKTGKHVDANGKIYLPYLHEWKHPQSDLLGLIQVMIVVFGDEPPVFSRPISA
Sequence of Vps36 (Eap45) GLUE (Q86VN1 1-138): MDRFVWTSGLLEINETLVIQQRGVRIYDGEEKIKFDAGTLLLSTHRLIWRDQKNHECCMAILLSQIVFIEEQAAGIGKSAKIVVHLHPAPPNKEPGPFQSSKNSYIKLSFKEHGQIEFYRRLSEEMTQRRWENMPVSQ

Row | Kd (ubiquitin [1]) | Kd (ubiquitin [2]) | Substance
1 | 510 µM | – | Tsg101 UEV (from UniProt Q99816)
2 | – | 330 µM | Vps36 (Eap45) GLUE (from UniProt Q86VN1)
